Measurements reported in paper PMC2121020 (The Journal of Cell Biology, 1996).

T1: CD44 of BHK cells (hamster (endogenous in BHK), UniProt Q60522 23-431)
T1 sequence: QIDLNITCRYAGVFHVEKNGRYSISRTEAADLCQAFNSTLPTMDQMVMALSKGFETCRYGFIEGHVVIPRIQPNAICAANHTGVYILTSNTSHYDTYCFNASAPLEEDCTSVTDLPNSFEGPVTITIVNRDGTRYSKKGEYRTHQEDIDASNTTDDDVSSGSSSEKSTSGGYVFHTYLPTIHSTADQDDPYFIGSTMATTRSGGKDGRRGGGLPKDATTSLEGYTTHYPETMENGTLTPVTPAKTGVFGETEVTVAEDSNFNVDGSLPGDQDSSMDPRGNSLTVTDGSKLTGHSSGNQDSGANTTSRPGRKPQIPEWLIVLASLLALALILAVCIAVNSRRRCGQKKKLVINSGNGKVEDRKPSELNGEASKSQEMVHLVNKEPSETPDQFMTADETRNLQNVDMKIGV

B1: recombinant mouse moesin (natural protein)
chain: MPKTISVRVTTMDAELEFAIQPNTTGKQLFDQVVKTIGLREVWFFGLQYQDTKAFSTWLKLNKKVTAQDVRKESPLLFKFRAKFYPEDVSEELIQDITQRLFFLQVKEGILNDDIYCPPETAVLLASYAVQSKYGDFNKEVHKSGYLAGDKLLPQRVLEQHKLNKDQWEERIQVWHEEHRGMLREDAVLEYLKIAQDLEMYGVNYFSIKNKKGSELWLGVDALGLNIYEQNDRLTPKIGFPWSEIRNISFNDKKFVIKPIDKKAPDFVFYAPRLRINKRILALCMGNHELYMRRRKPDTIEVQQMKAQAREEKHQKQMERALLENEKKKRELAEKEKEKIEREKEELMEKLKQIEEQTKKAQQELEEQTRRALELEQERKRAQSEAEKLAKERQEAEEAKEALLQASRDQKKTQEQLASEMAELTARISQLEMARKKKESEAVEWQQKAQMVQEDLEKTRAELKTAMSTPHVAEPAENEHDEQDENGAEASAELRADAMAKDRSEEERTTEAEKNERVQKHLKALTSELANARDESKKTANDMIHAENMRLGRDKYKTLRQIRQGNTKQRIDEFESM
B2: recombinant mouse radixin (natural protein)
chain: MPKPINVRVTTMDAELEFAIQPNTTGKQLFDQVVKTVGLREVWFFGLQYVDSKGYSTWLKLNKKVTQQDVKKENPLQFKFRAKFFPEDVSEELIQEITQRLFFLQVKEAILNDEIYCPPETAVLLASYAVQAKYGDYNKEIHKPGYLANDRLLPQRVLEQHKLTKEQWEERIQNWHEEHRGMLREDSMMEYLKIAQDLEMYGVNYFEIKNKKGTELWLGVDALGLNIYEHDDKLTPKIGFPWSEIRNISFNDKKFVIKPIDKKAPDFVFYAPRLRINKRILALCMGNHELYMRRRKPDTIEVQQMKAQAREEKHQKQLERAQLENEKKKREIAEKEKERIEREKEELMERLRQIEEQTVKAQKELEEQTRKALELEQERQRAKEEAERLDRERRAAEEAKSAIAKQAADQMKNQEQLAAELAEFTAKIALLEEAKKKKEEEATEWQHKAFAAQEDLEKTKEELKTVMSAPPPPPPPPVIPPTENEHDEQDENSAEASAELSSEGVMNHRSEEERVTETQKNERVKKQLQALSSELAQARDETKKTQNDVLHAENVKAGRDKYKTLRQIRQGNTKQRIDEFEAM
B3: recombinant mouse ezrin (natural protein)
chain: MPKPINVRVTTMDAELEFAIQPNTTGKQLFDQVVKTIGLREVWYFGLQYVDNKGFPTWLKLDKKVSAQEVRKENPVQFKFRAKFYPEDVAEELIQDITQKLFFLQVKDGILSDEIYCPPETAVLLGSYAVQAKFGDYNKEMHKSGYLSSERLIPQRVMDQHKLSRDQWEDRIQVWHAEHRGMLKDSAMLEYLKIAQDLEMYGINYFEIKNKKGTDLWLGVDALGLNIYEKDDKLTPKIGFPWSEIRNISFNDKKFVIKPIDKKAPDFVFYAPRLRINKRILQLCMGNHELYMRRRKPDTIEVQQMKAQAREEKHQKQLERQQLETEKKRRETVEREKEQMLREKEELMLRLQDYEQKTKRAEKELSEQIEKALQLEEERRRAQEEAERLEADRMAALRAKEELERQAQDQIKSQEQLAAELAEYTAKIALLEEARRRKEDEVEEWQHRAKEAQDDLVKTKEELHLVMTAPPPPPPPVYEPVNYHVQEGLQDEGAEPMGYSAELSSEGILDDRNEEKRITEAEKNERVQRQLLTLSNELSQARDENKRTHNDIIHNENMRQGRDKYKTLRQIRQGNTKQRIDEFEAM

Columns and labels:
CD44 of BHK cells = target: T1, CD44 of BHK cells; assay: co-sedimentation
[1] = target: B2; assay: pull-down
recombinant mouse moesin = target: B1; assay: pull-down
recombinant mouse ezrin = target: B3; assay: pull-down

Row | amount recovered in the insoluble fraction (of about 0.8 ug added) (CD44 of BHK cells) | binding result [1] | Kd (recombinant mouse moesin) | binding result (recombinant mouse ezrin) | Binder
1 | ~0.05 µg |  |  |  | B1
2 |  | binds | 9.3 ± 1.6 nM | binds | GST fusion protein with the cytoplasmic domain of mouse CD44 (domain or fragment) NSRRRCGQKKKLVINGGNGTVEDRKPSELNGEASKSQEMVHLVNKEPSETPDQCMTADETRNLQSVDMKIGV
3 | ~0.05 µg |  |  |  | B2
4 | ~0.05 µg |  |  |  | B3
